For assay [1], the target named is HIS-tagged human FcRn (human) (UniProt P55899). Description: SPR (Biacore 8K+), antibody captured on anti-human Fab CM4 chip, HIS-tagged human FcRn 9.8-5000 nM as analyte, pH 6.0, 25 C, steady-state fit. Background: Surface plasmon resonance follows binding to a sensor surface in real time, without labels.
Assay [2] addresses HIS-tagged human IL-13 (human) (UniProt P35225). As to the kind of experiment: BLI in-tandem epitope binning (Octet RH96): HIS-tagged human IL-13 on anti-penta-HIS biosensors, saturated with 200 nM Ref1, then 200 nM isotype-hIgG1-YTE as competing antibody; shaded cell (non-binding, <=0.1 nm). (In general: BLI is a label-free optical method that tracks binding on a fibre tip over time.)

The target is the same in assay [3]. Description: BLI in-tandem epitope binning (Octet RH96): HIS-tagged human IL-13 on anti-penta-HIS biosensors, saturated with 200 nM AbG, then 200 nM isotype-hIgG1-YTE as competing antibody; shaded cell (non-binding, <=0.1 nm).
Assay [4] has the same target. Description: BLI in-tandem epitope binning (Octet RH96): HIS-tagged human IL-13 on anti-penta-HIS biosensors, saturated with 200 nM tralokinumab-hIgG1-YTE, then 200 nM isotype-hIgG1-YTE as competing antibody; shaded cell (non-binding, <=0.1 nm).
Assay [5] has the same target. As to the kind of experiment: BLI in-tandem epitope binning (Octet RH96): HIS-tagged human IL-13 on anti-penta-HIS biosensors, first exposed to 200 nM isotype-hIgG1-YTE as saturating antibody, then 200 nM isotype-hIgG1-YTE as competing antibody; shaded cell (non-binding, <=0.1 nm).

Consider four substances from patent US20260116963A1.

Sequence of HIS-tagged human IL-13 (human) (P35225 other isoform, or with tags, fused parts or gaps limits assumed): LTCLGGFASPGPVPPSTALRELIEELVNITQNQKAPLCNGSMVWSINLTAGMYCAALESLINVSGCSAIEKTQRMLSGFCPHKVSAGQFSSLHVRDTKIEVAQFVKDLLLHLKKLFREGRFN
Sequence of HIS-tagged human FcRn (human) (P55899 24-297 limits assumed, chain 1 of 2): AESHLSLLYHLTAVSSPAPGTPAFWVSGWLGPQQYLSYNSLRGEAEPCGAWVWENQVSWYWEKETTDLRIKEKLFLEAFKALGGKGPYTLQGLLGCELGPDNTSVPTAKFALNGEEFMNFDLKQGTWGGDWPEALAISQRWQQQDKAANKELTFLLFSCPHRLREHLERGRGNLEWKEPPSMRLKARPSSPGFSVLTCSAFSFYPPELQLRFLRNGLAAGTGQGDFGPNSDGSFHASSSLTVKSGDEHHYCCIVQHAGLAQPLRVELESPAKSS
Sequence of HIS-tagged human FcRn (human) (chain, as listed by the source limits assumed, chain 2 of 2): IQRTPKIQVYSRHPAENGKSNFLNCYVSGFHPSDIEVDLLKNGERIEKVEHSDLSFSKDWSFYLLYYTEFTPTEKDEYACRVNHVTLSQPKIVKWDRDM

For isotype-hIgG1-YTE-TM (antibody), in assay [1], the Kd is 156 nM.

As to isotype-hIgG4 (antibody), the dissociation constant Kd in assay [1] worked out at 1190 nM.

On to isotype-hIgG1-YTE (antibody), for which the BLI response of the competing antibody in assay [2] was -0.036 nm; in assay [3] it was -0.018 nm; in assay [4], -0.023 nm; in assay [5], 0 nm. In assay [1], the Kd came to 155 nM.

In assay [1], isotype-hIgG1 (antibody) gave a Kd of 1160 nM.

Broadly, the Kd is the free concentration of one partner at which half of the binding sites on the other are occupied at equilibrium, for simple one-to-one binding.
